In publication PMC2248716:
Where two headings read alike, the source gives them in different places.

Key:
Assay in all cases: FRET or BRET
NaV1.4-EYFP [1] = target: NaV1.4-EYFP (UniProt P15390)
NaV1.4-EYFP [2] = target: NaV1.4-EYFP (UniProt P15390); remark: listed apart in the source
NaV1.4_(IQ/AA)-EYFP = NaV1.4_(IQ/AA)-EYFP (UniProt P15390)
NaV1.4-EYFP [3] = target: NaV1.4-EYFP (UniProt P15390); remark: listed apart in the source
NaV1.4-EYFP [4] = target: NaV1.4-EYFP (UniProt P15390); remark: listed apart in the source
NaV1.4-EYFP [5] = target: NaV1.4-EYFP (UniProt P15390); remark: listed apart in the source

ECFP-CaM (from UniProt P0DP23 1-149) (natural protein)
FRET efficiency (NaV1.4-EYFP [1]): 25.4% | FRET efficiency (NaV1.4-EYFP [2]): 8.2% | FRET ratio (NaV1.4-EYFP [2]): > 1 | FRET ratio (NaV1.4_(IQ/AA)-EYFP): < 1 | FRET efficiency (NaV1.4-EYFP [3]): 22.7% | FRET efficiency (NaV1.4-EYFP [4]): 9.9% | FRET efficiency (NaV1.4-EYFP [5]): 10.3% | FRET ratio (NaV1.4-EYFP [5]): 2
